# Measurements from the supplement of paper PMC5998384.
# How the values were obtained:
# HeLa Kyoto [1] = experiment: solubility in G1/S (NP-40 vs SDS abundance) (log2 ratio); higher = more soluble; details: cell cycle stage: G1/S
# HeLa Kyoto [2] = experiment: melting temperature (median over replicates), in situ; higher = more thermally stable
# HeLa Kyoto [3] = experiment: solubility change mitosis vs G1/S (difference of NP-40 vs SDS log2 ratios) (log2 ratio difference); higher = more soluble in mitosis
# HeLa Kyoto [4] = experiment: thermal stability score vs G1/S (z-score of summed log2 fold changes over temperatures); higher = more thermally stable than in G1/S
# [5] = cell cycle stage: early G1 (4.5 h after nocodazole release)
# 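Throughout, for melting temperature (median over replicates), in situ: HeLa Kyoto cells synchronized by double thymidine or nocodazole block, proteins quantified by TMT10plex mass spectrometry, three independent biological replicates.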
# 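Throughout, for solubility change mitosis vs G1/S (difference of NP-40 vs SDS log2 ratios): synchronized HeLa Kyoto cells (double thymidine block for G1/S, nocodazole release for mitosis), protein amounts in NP-40 versus SDS lysates quantified by mass spectrometry, three biological replicates.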
# 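Throughout, for solubility in G1/S (NP-40 vs SDS abundance): HeLa Kyoto cells arrested at G1/S by double thymidine block, proteins quantified by TMT10plex mass spectrometry in mild NP-40 versus SDS extracts, three biological replicates.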
# 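Throughout, for thermal stability score vs G1/S (z-score of summed log2 fold changes over temperatures): synchronized HeLa Kyoto cells, proteins quantified by TMT10plex mass spectrometry, three biological replicates, mitosis taken 0.5 h after nocodazole release, G1/S directly after double thymidine block.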
Sequence,solubility in G1/S (log2) (HeLa Kyoto [1]),melting temperature (HeLa Kyoto [2]; cell cycle stage: G1/S) [°C],melting temperature (HeLa Kyoto [2]; cell cycle stage: mitosis) [°C],solubility change mitosis (log2) (HeLa Kyoto [3]),thermal stability score (HeLa Kyoto [4]; [5]),thermal stability score (HeLa Kyoto [4]; cell cycle stage: mitosis)
MARPDDEEGAAVAPGHPLAKGYLPLPRGAPVGKESVELQNGPKAGTFPVNGAPRDSLAAASGVLGGPQTPLAPEEETQARLLPAGAGAETPGAESSPLPLTALSPRRFVVLLIFSLYSLVNAFQWIQYSIISNVFEGFYGVTLLHIDWLSMVYMLAYVPLIFPATWLLDTRGLRLTALLGSGLNCLGAWIKCGSVQQHLFWVTMLGQCLCSVAQVFILGLPSRIASVWFGPKEVSTACATAVLGNQLGTAVGFLLPPVLVPNTQNDTNLLACNISTMFYGTSAVATLLFILTAIAFKEKPRYPPSQAQAALQDSPPEEYSYKKSIRNLFKNIPFVLLLITYGIMTGAFYSVSTLLNQMILTYYEGEEVNAGRIGLTLVVAGMVGSILCGLWLDYTKTYKQTTLIVYILSFIGMVIFTFTLDLRYIIIVFVTGGVLGFFMTGYLPLGFEFAVEITYPESEGTSSGLLNASAQIFGILFTLAQGKLTSDYGPKAGNIFLCVWMFIGIILTALIKSDLRRHNINIGITNVDVKAIPADSPTDQEPKTVMLSKQSESAI [FLVCR1],-0.162,57.4,59.1,-0.0168,-1.21,-2.85
MEQLSDEEIDHGAEEDSDKEDQDLDKMFGAWLGELDKLTQSLDSDKPMEPVKRSPLRQETNMANFSYRFSIYNLNEALNQGETVDLDALMADLCSIEQELSSIGSGNSKRQITETKATQKLPVSRHTLKHGTLKGLSSSSNRIAKPSHASYSLDDVTAQLEQASLSMDEAAQQSVLEDTKPLVTNQHRRTASAGTVSDAEVHSISNSSHSSITSAASSMDSLDIDKVTRPQELDLTHQGQPITEEEQAAKLKAEKIRVALEKIKEAQVKKLVIRVHMSDDSSKTMMVDERQTVRQVLDNLMDKSHCGYSLDWSLVETVSELQMERIFEDHENLVENLLNWTRDSQNKLIFMERIEKYALFKNPQNYLLGKKETAEMADRNKEVLLEECFCGSSVTVPEIEGVLWLKDDGKKSWKKRYFLLRASGIYYVPKGKAKVSRDLVCFLQLDHVNVYYGQDYRNKYKAPTDYCLVLKHPQIQKKSQYIKYLCCDDVRTLHQWVNGIRIAKYGKQLYMNYQEALKRTESAYDWTSLSSSSIKSGSSSSSIPESQSNHSNQSDSGVSDTQPAGHVRSQSIVSSVFSEAWKRGTQLEESSKARMESMNRPYTSLVPPLSPQPKIVTPYTASQPSPPLPPPPPPPPPPPPPPPPPPPPLPSQSAPSAGSAAPMFVKYSTITRLQNASQHSGALFKPPTPPVMQSQSVKPQILVPPNGVVPPPPPPPPPPTPGSAMAQLKPAPCAPSLPQFSAPPPPLKIHQVQHITQVAPPTPPPPPPIPAPLPPQAPPKPLVTIPAPTSTKTVAPVVTQAAPPTPTPPVPPAKKQPAFPASYIPPSPPTPPVPVPPPTLPKQQSFCAKPPPSPLSPVPSVVKQIASQFPPPPTPPAMESQPLKPVPANVAPQSPPAVKAKPKWQPSSIPVPSPDFPPPPPESSLVFPPPPPSPVPAPPPPPPPTASPTPDKSGSPGKKTSKTSSPGGKKPPPTPQRNSSIKSSSGAEHPEPKRPSVDSLVSKFTPPAESGSPSKETLPPPAAPPKPGKLNLSGVNLPGVLQQGCVSAKAPVLSGRGKDSVVEFPSPPSDSDFPPPPPETELPLPPIEIPAVFSGNTSPKVAVVNPQPQQWSKMSVKKAPPPTRPKRNDSTRLTQAEISEQPTMATVVPQVPTSPKSSLSVQPGFLADLNRTLQRKSITRHGSLSSRMSRAEPTATMDDMALPPPPPELLSDQQKAGYGGSHISGYATLRRGPPPAPPKRDQNTKLSRDW [RAPH1],0.0855,52,52.3,-0.187,-1.35,-0.404
MAAAAKPNNLSLVVHGPGDLRLENYPIPEPGPNEVLLRMHSVGICGSDVHYWEYGRIGNFIVKKPMVLGHEASGTVEKVGSSVKHLKPGDRVAIEPGAPRENDEFCKMGRYNLSPSIFFCATPPDDGNLCRFYKHNAAFCYKLPDNVTFEEGALIEPLSVGIHACRRGGVTLGHKVLVCGAGPIGMVTLLVAKAMGAAQVVVTDLSATRLSKAKEIGADLVLQISKESPQEIARKVEGQLGCKPEVTIECTGAEASIQAGIYATRSGGNLVLVGLGSEMTTVPLLHAAIREVDIKGVFRYCNTWPVAISMLASKSVNVKPLVTHRFPLEKALEAFETFKKGLGLKIMLKCDPSDQNP [SORD],0.184,58.1,57,-0.109,-2.25,-1.12
MMDIYVCLKRPSWMVDNKRMRTASNFQWLLSTFILLYLMNQVNSQKKGAPHDLKCVTNNLQVWNCSWKAPSGTGRGTDYEVCIENRSRSCYQLEKTSIKIPALSHGDYEITINSLHDFGSSTSKFTLNEQNVSLIPDTPEILNLSADFSTSTLYLKWNDRGSVFPHRSNVIWEIKVLRKESMELVKLVTHNTTLNGKDTLHHWSWASDMPLECAIHFVEIRCYIDNLHFSGLEEWSDWSPVKNISWIPDSQTKVFPQDKVILVGSDITFCCVSQEKVLSALIGHTNCPLIHLDGENVAIKIRNISVSASSGTNVVFTTEDNIFGTVIFAGYPPDTPQQLNCETHDLKEIICSWNPGRVTALVGPRATSYTLVESFSGKYVRLKRAEAPTNESYQLLFQMLPNQEIYNFTLNAHNPLGRSQSTILVNITEKVYPHTPTSFKVKDINSTAVKLSWHLPGNFAKINFLCEIEIKKSNSVQEQRNVTIKGVENSSYLVALDKLNPYTLYTFRIRCSTETFWKWSKWSNKKQHLTTEASPSKGPDTWREWSSDGKNLIIYWKPLPINEANGKILSYNVSCSSDEETQSLSEIPDPQHKAEIRLDKNDYIISVVAKNSVGSSPPSKIASMEIPNDDLKIEQVVGMGKGILLTWHYDPNMTCDYVIKWCNSSRSEPCLMDWRKVPSNSTETVIESDEFRPGIRYNFFLYGCRNQGYQLLRSMIGYIEELAPIVAPNFTVEDTSADSILVKWEDIPVEELRGFLRGYLFYFGKGERDTSKMRVLESGRSDIKVKNITDISQKTLRIADLQGKTSYHLVLRAYTDGGVGPEKSMYVVTKENSVGLIIAILIPVAVAVIVGVVTSILCYRKREWIKETFYPDIPNPENCKALQFQKSVCEGSSALKTLEMNPCTPNNVEVLETRSAFPKIEDTEIISPVAERPEDRSDAEPENHVVVSYCPPIIEEEIPNPAADEAGGTAQVIYIDVQSMYQPQAKPEEEQENDPVGGAGYKPQMHLPINSTVEDIAAEEDLDKTAGYRPQANVNTWNLVSPDSPRSIDSNSEIVSFGSPCSINSRQFLIPPKDEDSPKSNGGGWSFTNFFQNKPND [LIFR],0.206,54.8,55.1,-0.094,-3.21,-1.95
MLSLLVWILTLSDTFSQGTQTRFSQEPADQTVVAGQRAVLPCVLLNYSGIVQWTKDGLALGMGQGLKAWPRYRVVGSADAGQYNLEITDAELSDDASYECQATEAALRSRRAKLTVLIPPEDTRIDGGPVILLQAGTPHNLTCRAFNAKPAATIIWFRDGTQQEGAVASTELLKDGKRETTVSQLLINPTDLDIGRVFTCRSMNEAIPSGKETSIELDVHHPPTVTLSIEPQTVQEGERVVFTCQATANPEILGYRWAKGGFLIEDAHESRYETNVDYSFFTEPVSCEVHNKVGSTNVSTLVNVHFAPRIVVDPKPTTTDIGSDVTLTCVWVGNPPLTLTWTKKDSNMVLSNSNQLLLKSVTQADAGTYTCRAIVPRIGVAEREVPLYVNGPPIISSEAVQYAVRGDGGKVECFIGSTPPPDRIAWAWKENFLEVGTLERYTVERTNSGSGVLSTLTINNVMEADFQTHYNCTAWNSFGPGTAIIQLEEREVLPVGIIAGATIGASILLIFFFIALVFFLYRRRKGSRKDVTLRKLDIKVETVNREPLTMHSDREDDTASVSTATRVMKAIYSSFKDDVDLKQDLRCDTIDTREEYEMKDPTNGYYNVRAHEDRPSSRAVLYADYRAPGPARFDGRPSSRLSHSSGYAQLNTYSRGPASDYGPEPTPPGPAAPAGTDTTSQLSYENYEKFNSHPFPGAAGYPTYRLGYPQAPPSGLERTPYEAYDPIGKYATATRFSYTSQHSDYGQRFQQRMQTHV [KIRREL],-0.151,52,52.2,0.0763,-1.16,-0.769
METILEQQRRYHEEKERLMDVMAKEMLTKKSTLRDQINSDHRTRAMQDRYMEVSGNLRDLYDDKDGLRKEELNAISGPNEFAEFYNRLKQIKEFHRKHPNEICVPMSVEFEELLKARENPSEEAQNLVEFTDEEGYGRYLDLHDCYLKYINLKASEKLDYITYLSIFDQLFDIPKERKNAEYKRYLEMLLEYLQDYTDRVKPLQDQNELFGKIQAEFEKKWENGTFPGWPKETSSALTHAGAHLDLSAFSSWEELASLGLDRLKSALLALGLKCGGTLEERAQRLFSTKGKSLESLDTSLFAKNPKSKGTKRDTERNKDIAFLEAQIYEYVEILGEQRHLTHENVQRKQARTGEEREEEEEEQISESESEDEENEIIYNPKNLPLGWDGKPIPYWLYKLHGLNINYNCEICGNYTYRGPKAFQRHFAEWRHAHGMRCLGIPNTAHFANVTQIEDAVSLWAKLKLQKASERWQPDTEEEYEDSSGNVVNKKTYEDLKRQGLL [SF3A3],0.132,49.8,48.1,0.129,0.0461,0.769
